Measured values taken from patent US20130034559A1 (AstraZeneca / MedImmune, published 2013).

Experiments:
[1] = biological target: T1, recombinant monomeric cynomologus B7-H1 FlagHis10 extracellular domain (cynomologus); assay: SPR (BIAcore T100), IgG captured via protein G, monomeric cynomologus B7-H1 ECD as analyte, 25 °C, 1:1 model
T1 construct: extracellular domain; also called CYNO B7H1
Description: (§1) The binding affinity and kinetic parameters of anti-B7-H1 antibodies in the IgG1-TM format to monomeric human and cynomologus B7-H1 were determined by surface plasmon resonance using a BIAcore T100 instrument (BIAcore, Uppsala, Sweden). In brief, experiments were performed at 25° C. using HBS-EP buffer (10 mM HEPES, 150 mM NaCl, 3 mM EDTA, 0.05% v/v surfactant P20) as running buffer. IgGs were affinity captured on the surface of a CM5 sensor chip (BIAcore) via protein G, which was amine coupled onto the CM5 surface to achieve the density of ˜500 Response Units (RU), according to the manufacturer's instructions (BIAapplications Handbook, BIAcore). Recombinant monomeric human or cynomologus B7-H1 FlagHis₁₀ extracellular domains (ECDs) were used as analytes. […] All measurements were baseline corrected by subtracting the sensorgram obtained with the control (activated-deactivated) flow cell, as well as double referenced with blank (zero analyte concentration) injections. Data were analyzed using the T-100 BIAevaluation software package and fitted to a simple 1:1 Langmuir binding model with local Rₘₐₓ and bulk refractive index set to 0. Data were calculated from at least two independent experiments. Mass transport effects were limited by keeping the level of affinity-captured IgGs below 250 RU.

B7H1_F19S = biological target: T2, B7H1_F19S (human, UniProt Q9NZQ7 19-238); assay: HTRF competition: untagged B7-H1 sample against HIS FLAG tagged human B7-H1 for labelled antibody
T2 construct: range 19-238; also called human B7-H1 extracellular domain mutant F19S
Description: (§2) The HTRF® competition assays measured the binding of anti-B7-H1 antibody to HIS FLAG tagged B7-H1. Titration of non tagged B7-H1 samples, prepared as described above, will compete with HIS FLAG tagged B7-H1 for binding to anti-B7-H1 antibody, leading to a reduction in assay signal. […] 10 μl of B7-H1 sample was added to a 384 well low volume assay plate (Corning 3673). […] Assay plates were incubated for 4 hours at room temperature prior to reading time resolved fluorescence at 620 nm and 665 nm emission wavelengths using an EnVision plate reader (Perkin Elmer).

B7H1_T20D = biological target: T3, B7H1_T20D (human, UniProt Q9NZQ7 19-238); assay: as above
T3 construct: range 19-238; also called human B7-H1 extracellular domain mutant T20D
Description: as §2

B7H1_D122E = biological target: T4, B7H1_D122E (human, UniProt Q9NZQ7 19-238); assay: as above
T4 construct: range 19-238; also called B7H1 D122E mutant
Description: as §2

B7H1_D122N = biological target: T5, B7H1_D122N (human, UniProt Q9NZQ7 19-238); assay: as above
T5 construct: range 19-238; also called human B7-H1 extracellular domain mutant D122N
Description: as §2

B7H1_F19A = biological target: T6, B7H1_F19A (human, UniProt Q9NZQ7 19-238); assay: as above
T6 construct: range 19-238; also called human B7-H1 extracellular domain mutant F19A
Description: as §2

B7H1_T20V = biological target: T7, B7H1_T20V (human, UniProt Q9NZQ7 19-238); assay: as above
T7 construct: range 19-238; also called human B7-H1 extracellular domain mutant T20V
Description: as §2

B7H1_R113L = biological target: T8, B7H1_R113L (human, UniProt Q9NZQ7 19-238); assay: as above
T8 construct: range 19-238; also called human B7-H1 extracellular domain mutant R113L
Description: as §2

B7H1_R113Y = biological target: T9, B7H1_R113Y (human, UniProt Q9NZQ7 19-238); assay: as above
T9 construct: range 19-238; also called human B7-H1 extracellular domain mutant R113Y
Description: as §2

B7H1_F19G = biological target: T10, B7H1_F19G (human, UniProt Q9NZQ7 19-238); assay: as above
T10 construct: range 19-238; also called human B7-H1 extracellular domain mutant F19G
Description: as §2

B7H1_T20A = biological target: T11, B7H1_T20A (human, UniProt Q9NZQ7 19-238); assay: as above
T11 construct: range 19-238; also called human B7-H1 extracellular domain mutant T20A
Description: as §2

[2] = biological target: T12, recombinant monomeric human B7-H1 FlagHis10 extracellular domain (human, UniProt Q9NZQ7 19-238); assay: SPR (BIAcore T100), IgG captured via protein G, monomeric B7-H1 ECD as analyte, 25 °C, 1:1 model
T12 construct: extracellular domain; also called HIS FLAG tagged human B7-H1; HIS FLAG tagged B7-H1; not shown: FlagHis10 tag
Description: as §1

T12 sequence (Q9NZQ7 19-238): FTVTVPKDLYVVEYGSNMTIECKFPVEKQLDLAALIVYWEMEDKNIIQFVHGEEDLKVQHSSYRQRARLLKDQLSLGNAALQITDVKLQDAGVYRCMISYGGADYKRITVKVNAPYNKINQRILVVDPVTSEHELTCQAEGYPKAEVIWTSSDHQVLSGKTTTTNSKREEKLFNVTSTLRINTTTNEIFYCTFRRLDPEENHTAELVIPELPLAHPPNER
T6 sequence (Q9NZQ7 19-238 F19A limits assumed): as the sequence (Q9NZQ7 19-238) above, with F1A counted along it
T3 sequence (Q9NZQ7 19-238 T20D limits assumed): as the sequence (Q9NZQ7 19-238) above, with T2D counted along it
T4 sequence (Q9NZQ7 19-238 D122E limits assumed): as the sequence (Q9NZQ7 19-238) above, with D104E counted along it
T2 sequence (Q9NZQ7 19-238 F19S limits assumed): as the sequence (Q9NZQ7 19-238) above, with F1S counted along it
T9 sequence (Q9NZQ7 19-238 R113Y limits assumed): as the sequence (Q9NZQ7 19-238) above, with R95Y counted along it
T7 sequence (Q9NZQ7 19-238 T20V limits assumed): as the sequence (Q9NZQ7 19-238) above, with T2V counted along it
T5 sequence (Q9NZQ7 19-238 D122N limits assumed): as the sequence (Q9NZQ7 19-238) above, with D104N counted along it
T10 sequence (Q9NZQ7 19-238 F19G limits assumed): as the sequence (Q9NZQ7 19-238) above, with F1G counted along it
T11 sequence (Q9NZQ7 19-238 T20A limits assumed): as the sequence (Q9NZQ7 19-238) above, with T2A counted along it
T8 sequence (Q9NZQ7 19-238 R113L limits assumed): as the sequence (Q9NZQ7 19-238) above, with R95L counted along it

Kd [1]: 0.835 nM
koff [1]: 0.0011 s⁻¹
kon [1]: 1.31e+06 M⁻¹ s⁻¹
binding result (B7H1_F19S): no binding
binding result (B7H1_T20D): no binding
binding result (B7H1_D122E): no binding
binding result (B7H1_D122N): no binding
binding result (B7H1_F19A): no binding
binding result (B7H1_T20V): no binding
binding result (B7H1_R113L): no binding
binding result (B7H1_R113Y): no binding
binding result (B7H1_F19G): no binding
binding result (B7H1_T20A): no binding
Kd [2]: 1 nM
koff [2]: 0.0012 s⁻¹
kon [2]: 1.24e+06 M⁻¹ s⁻¹
B1: 2.7A4OPT (antibody, V domains shown)
VH: EVQLVESGGGLVKPGGSLRLSCAASGFTFSTYSMNWVRQAPGKGLEWVSSISSSGDYIYYADSVKGRFTISRDNAKNSLYLQMNSLRAEDTAVYYCARDLVTSMVAFDYWGQGTLVTVSS
VL: SYELTQPPSVSVSPGQTARITCSGDALPQKYVFWYQQKSGQAPVLVIYEDSKRPSGIPERFSGSSSGTMATLTISGAQVEDEADYYCYSTDRSGNHRVFGGGTKLTVL
notes: Germlined variable domains; human IgG1-TM (L234F, L235E, P331S), lambda; also called 2.7A4OPT IgG1-TM
